Test results: patent publication US20140087995A1 (published 2014)
Blank lines part the entries; values can stand above or below the binder they belong to. Numbered stars: 1 amine (or outer) side, 2 acyl side, 3 side chain; on linkers, the order of the positions; unused ones are H or OH. Bridge positions count the residues as written; N and C are the ends. Square brackets hold non-standard residues; d marks the D form. Side chains are listed from the residue outwards. Ends that are not written are not given here. * marks the point of attachment. C20 diacid = O=C(O)CCCCCCCCCCCCCCCCCCC(=O)*; γGlu = O=C(O)[C@H](CCC(=O)[*:2])N[*:1]

Columns and labels:
[1] = target: T1, rat calcitonin receptor (rat, UniProt P32214 25-516); assay: SPA competition binding, displacement of 125I-calcitonin from membranes of BHK tk'ts 13 cells with rat calcitonin receptor (Assay VIII)
T1 construct: whole, on cells; Used as membranes prepared from transiently transfected BHK tk'ts 13 cells (Assay VIII); also called rCTR; rat calcitonin (a) receptor
T1 sequence (looked up): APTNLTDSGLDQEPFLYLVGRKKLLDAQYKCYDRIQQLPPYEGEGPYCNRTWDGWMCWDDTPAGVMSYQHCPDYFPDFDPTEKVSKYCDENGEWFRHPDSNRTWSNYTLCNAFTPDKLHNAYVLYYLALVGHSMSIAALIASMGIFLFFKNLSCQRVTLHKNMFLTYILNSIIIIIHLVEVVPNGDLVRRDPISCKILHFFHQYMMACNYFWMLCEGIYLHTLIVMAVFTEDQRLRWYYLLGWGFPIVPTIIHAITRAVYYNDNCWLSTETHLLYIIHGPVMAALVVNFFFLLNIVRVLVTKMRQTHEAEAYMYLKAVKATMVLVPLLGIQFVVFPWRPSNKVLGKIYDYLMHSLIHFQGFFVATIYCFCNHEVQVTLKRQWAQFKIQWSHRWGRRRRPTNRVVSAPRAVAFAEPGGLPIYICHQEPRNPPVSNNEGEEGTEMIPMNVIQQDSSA

[2] = target: T2, rat amylin receptor (rat calcitonin receptor + rat RAMP 3) (rat, UniProt P32214 25-516; Q9JJ73 23-147); assay: SPA competition binding, displacement of 125I-rat amylin from membranes of BHK tk'ts 13 cells with rat calcitonin receptor + rat RAMP 3 (Assay VI)
T2 construct: whole, on cells; Used as membranes prepared from transiently transfected BHK tk'ts 13 cells (Assay VI); also called rAmylin-R; rat amylin 3(a) receptor
T2 sequence (looked up) 1: T1 sequence (looked up)
T2 sequence (looked up) 2: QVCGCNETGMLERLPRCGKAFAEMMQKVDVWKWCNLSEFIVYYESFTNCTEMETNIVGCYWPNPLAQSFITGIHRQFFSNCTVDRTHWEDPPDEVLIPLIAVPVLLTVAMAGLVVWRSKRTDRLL

[3] = target: T3, human amylin receptor (amylin 3(a) receptor: human calcitonin receptor co-expressed with RAMP-3) (human, UniProt P30988 25-474; O60896 24-148, limits assumed); assay: SPA competition binding, membranes of Amylin 3(a)/CRE-luc BHK cells, displacement of 125I-rat amylin (Assay V)
T3 construct: whole, on cells; also called hAmylin-R; hAmylinR
T3 sequence (looked up) 1: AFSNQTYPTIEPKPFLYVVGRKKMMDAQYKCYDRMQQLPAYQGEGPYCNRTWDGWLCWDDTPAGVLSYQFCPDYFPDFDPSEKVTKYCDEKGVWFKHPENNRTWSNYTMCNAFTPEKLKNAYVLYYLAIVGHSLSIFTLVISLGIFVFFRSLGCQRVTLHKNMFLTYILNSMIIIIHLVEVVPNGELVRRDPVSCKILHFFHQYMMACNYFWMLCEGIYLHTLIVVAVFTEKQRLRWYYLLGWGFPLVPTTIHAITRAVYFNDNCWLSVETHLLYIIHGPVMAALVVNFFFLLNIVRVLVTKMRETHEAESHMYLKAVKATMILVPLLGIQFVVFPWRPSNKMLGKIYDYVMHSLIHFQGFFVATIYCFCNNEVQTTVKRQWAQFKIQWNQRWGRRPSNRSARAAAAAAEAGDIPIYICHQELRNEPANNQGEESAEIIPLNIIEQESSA
T3 sequence (looked up) 2: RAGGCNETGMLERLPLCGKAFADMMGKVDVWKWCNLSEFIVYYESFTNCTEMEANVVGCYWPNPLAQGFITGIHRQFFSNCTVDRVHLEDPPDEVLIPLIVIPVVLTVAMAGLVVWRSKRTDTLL
Outline: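 SPA beads + BHK amylin 3(a)/CRE-luc membranes, 35 ng/μL final; buffer 50 mM Hepes pH 7.4, 1 mM CaCl2, 5 mM MgCl₂, 0.1% OA, 0.02% Tween20. 120 min, 25° C, shaken; scintillation count. IC₅₀ by one-site binding competition fit, taken as receptor affinity.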

IC50 [1]: 536 nM
IC50 [2]: 1.69 nM
Binder: K([γGlu-γGlu-C20 diacid])CNTATCATQRLA[dD]FLRHSSPNFGAIPSSTNVGSRTY-NH2 (disulfide 2-7 (inferred), Residue 14 is the D-isomer of Asp)

IC50 [3]: 0.533 nM
B1: N^ε1-[(4S)-4-carboxy-4-[[(4S)-4-carboxy-4-(19-carboxynonadecanoylamino)butanoyl]amino]butanoyl]-[Glu14,Arg17,Pro21,Pro27,Pro34,Glu35,Pro37]-h-amylin (peptide)
peptide: K([γGlu-γGlu-C20 diacid])CNTATCATQRLAEFLRHSSPNFGAIPSSTNVGPETP-NH2
modifications: disulfide 2-7; N-terminus assumed
SMILES: CC[C@H](C)[C@H](NC(=O)[C@H](C)NC(=O)CNC(=O)[C@H](Cc1ccccc1)NC(=O)[C@H](CC(N)=O)NC(=O)[C@@H]1CCCN1C(=O)[C@H](CO)NC(=O)[C@H](CO)NC(=O)[C@H](Cc1c[nH]cn1)NC(=O)[C@H](CCCNC(=N)N)NC(=O)[C@H](CC(C)C)NC(=O)[C@H](Cc1ccccc1)NC(=O)[C@H](CCC(=O)O)NC(=O)[C@H](C)NC(=O)[C@H](CC(C)C)NC(=O)[C@H](CCCNC(=N)N)NC(=O)[C@H](CCC(N)=O)NC(=O)[C@@H](NC(=O)[C@H](C)NC(=O)[C@@H]1CSSC[C@H](NC(=O)[C@@H](N)CCCCNC(=O)CC[C@H](NC(=O)CC[C@H](NC(=O)CCCCCCCCCCCCCCCCCCC(=O)O)C(=O)O)C(=O)O)C(=O)N[C@@H](CC(N)=O)C(=O)N[C@@H]([C@@H](C)O)C(=O)N[C@@H](C)C(=O)N[C@@H]([C@@H](C)O)C(=O)N1)[C@@H](C)O)C(=O)N1CCC[C@H]1C(=O)N[C@@H](CO)C(=O)N[C@@H](CO)C(=O)N[C@H](C(=O)N[C@@H](CC(N)=O)C(=O)N[C@H](C(=O)NCC(=O)N1CCC[C@H]1C(=O)N[C@@H](CCC(=O)O)C(=O)N[C@H](C(=O)N1CCC[C@H]1C(N)=O)[C@@H](C)O)C(C)C)[C@@H](C)O
